Assays:
human CD33 R69A = human CD33 R69A (human, UniProt P20138 18-364); test: alanine scan, flow cytometry, HEK293-T;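 note: antibody binding to each alanine-substituted CD33 mutant expressed transiently in HEK293-T, read as fluorescence minus background, mean of duplicates, relative to wild-type CD33 set as 100%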
human CD33 S97A = human CD33 S97A (human, UniProt P20138 18-364); test: alanine scan, flow cytometry, HEK293-T;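 note: antibody binding to each alanine-substituted CD33 mutant expressed transiently in HEK293-T, read as fluorescence minus background, mean of duplicates, relative to wild-type CD33 set as 100%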
human CD33 R110A = human CD33 R110A (human, UniProt P20138 18-364); test: alanine scan, flow cytometry, HEK293-T;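 note: antibody binding to each alanine-substituted CD33 mutant expressed transiently in HEK293-T, read as fluorescence minus background, mean of duplicates, relative to wild-type CD33 set as 100%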
human CD33 Y50A = human CD33 Y50A (human, UniProt P20138 18-364); test: alanine scan, flow cytometry, HEK293-T;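 note: antibody binding to each alanine-substituted CD33 mutant expressed transiently in HEK293-T, read as fluorescence minus background, mean of duplicates, relative to wild-type CD33 set as 100%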
human CD33 E63A = human CD33 E63A (human, UniProt P20138 18-364); test: alanine scan, flow cytometry, HEK293-T
human CD33 Q83A = human CD33 Q83A (human, UniProt P20138 18-364); test: alanine scan, flow cytometry, HEK293-T
human CD33 T86A = human CD33 T86A (human, UniProt P20138 18-364); test: alanine scan, flow cytometry, HEK293-T
human CD33 V138A = biological target: T1, human CD33 V138A (human, UniProt P20138 18-364); test: alanine scan, flow cytometry, HEK293-T
T1 construct: alanine scan clone, transfected HEK293-T

human CD33 P155A = biological target: T2, human CD33 P155A (human, UniProt P20138 18-364); test: alanine scan, flow cytometry, HEK293-T
T2 construct: alanine scan clone, transfected HEK293-T

human CD33 H143A = biological target: T3, human CD33 H143A (human, UniProt P20138 18-364); test: alanine scan, flow cytometry, HEK293-T
T3 construct: alanine scan clone, transfected HEK293-T

human CD33 Y127A = biological target: T4, human CD33 Y127A (human, UniProt P20138 18-364); test: alanine scan, flow cytometry, HEK293-T
T4 construct: alanine scan clone, transfected HEK293-T

human CD33 P174A = biological target: T5, human CD33 P174A (human, UniProt P20138 18-364); test: alanine scan, flow cytometry, HEK293-T
T5 construct: alanine scan clone, transfected HEK293-T

human CD33 H193A = biological target: T6, human CD33 H193A (human, UniProt P20138 18-364); test: alanine scan, flow cytometry, HEK293-T
T6 construct: alanine scan clone, transfected HEK293-T

human CD33 S131A = biological target: T7, human CD33 S131A (human, UniProt P20138 18-364); test: alanine scan, flow cytometry, HEK293-T
T7 construct: alanine scan clone, transfected HEK293-T

human CD33 P132K = human CD33 P132K (human, UniProt P20138 18-364); test: flow cytometry, transfected cells
human CD33 W22Y = human CD33 W22Y (human, UniProt P20138 18-364); test: flow cytometry, transfected cells
human CD33 P132Q = human CD33 P132Q (human, UniProt P20138 18-364); test: flow cytometry, transfected cells
human CD33 W22Q = human CD33 W22Q (human, UniProt P20138 18-364); test: flow cytometry, transfected cells
human CD33 P132Y = human CD33 P132Y (human, UniProt P20138 18-364); test: flow cytometry, transfected cells
human CD33 C212A [1] = biological target: human CD33 C212A (human, UniProt P20138 18-364); test: alanine scan, flow cytometry;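 note: HEK293-T cells transiently expressing single-residue alanine mutants of CD33 (alanine swapped to serine), antibody binding read by fluorescence in duplicate, background-subtracted, expressed relative to wild-type CD33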
Target sequence in this assay (P20138 18-364 C212A limits assumed): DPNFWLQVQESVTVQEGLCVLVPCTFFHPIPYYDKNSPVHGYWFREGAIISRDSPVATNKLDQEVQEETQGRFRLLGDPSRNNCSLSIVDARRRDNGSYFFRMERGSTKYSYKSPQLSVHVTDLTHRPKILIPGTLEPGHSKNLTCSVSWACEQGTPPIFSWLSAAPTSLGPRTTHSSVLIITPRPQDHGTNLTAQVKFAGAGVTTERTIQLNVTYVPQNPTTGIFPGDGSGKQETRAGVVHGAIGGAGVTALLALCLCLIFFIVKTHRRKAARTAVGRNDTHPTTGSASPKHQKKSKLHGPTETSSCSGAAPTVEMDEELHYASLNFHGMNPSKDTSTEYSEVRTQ

human CD33 Y49H = human CD33 Y49H (human, UniProt P20138 18-364); test: flow cytometry, transfected cells
human CD33 K52I = human CD33 K52I (human, UniProt P20138 18-364); test: flow cytometry, transfected cells
human CD33 Y49G = human CD33 Y49G (human, UniProt P20138 18-364); test: flow cytometry, transfected cells
human CD33 Y49Q = human CD33 Y49Q (human, UniProt P20138 18-364); test: flow cytometry, transfected cells
human CD33 Y49L = human CD33 Y49L (human, UniProt P20138 18-364); test: flow cytometry, transfected cells
human CD33 Y49I = human CD33 Y49I (human, UniProt P20138 18-364); test: flow cytometry, transfected cells
human CD33 P48I = human CD33 P48I (human, UniProt P20138 18-364); test: flow cytometry, transfected cells
human CD33 K52Y = human CD33 K52Y (human, UniProt P20138 18-364); test: flow cytometry, transfected cells
human CD33 K52L = human CD33 K52L (human, UniProt P20138 18-364); test: flow cytometry, transfected cells
human CD33 C212A [2] = biological target: human CD33 C212A (human, UniProt P20138 18-364); test: alanine scan, flow cytometry, HEK293-T
Target sequence in this assay (P20138 18-364 C212A limits assumed): as above

human CD33 Y49T = human CD33 Y49T (human, UniProt P20138 18-364); test: flow cytometry, transfected cells
human CD33 P48K = human CD33 P48K (human, UniProt P20138 18-364); test: flow cytometry, transfected cells
human CD33 Y50R = human CD33 Y50R (human, UniProt P20138 18-364); test: flow cytometry, transfected cells
human CD33 P48L = human CD33 P48L (human, UniProt P20138 18-364); test: flow cytometry, transfected cells
human CD33 P48M = human CD33 P48M (human, UniProt P20138 18-364); test: flow cytometry, transfected cells
human CD33 P48M, sequence (P20138 18-364 P48M limits assumed): as the sequence (P20138 18-364 C212A limits assumed) above, with P31M, A195C counted along it

T3 sequence (P20138 18-364 H143A limits assumed): as the sequence (P20138 18-364 C212A limits assumed) above, with H126A, A195C counted along it
human CD33 Q83A, sequence (P20138 18-364 Q83A limits assumed): as the sequence (P20138 18-364 C212A limits assumed) above, with Q66A, A195C counted along it
T1 sequence (P20138 18-364 V138A limits assumed): as the sequence (P20138 18-364 C212A limits assumed) above, with V121A, A195C counted along it
human CD33 R69A, sequence (P20138 18-364 R69A limits assumed): as the sequence (P20138 18-364 C212A limits assumed) above, with R52A, A195C counted along it
T6 sequence (P20138 18-364 H193A limits assumed): as the sequence (P20138 18-364 C212A limits assumed) above, with H176A, A195C counted along it
T2 sequence (P20138 18-364 P155A limits assumed): as the sequence (P20138 18-364 C212A limits assumed) above, with P138A, A195C counted along it
T4 sequence (P20138 18-364 Y127A limits assumed): as the sequence (P20138 18-364 C212A limits assumed) above, with Y110A, A195C counted along it
human CD33 T86A, sequence (P20138 18-364 T86A limits assumed): as the sequence (P20138 18-364 C212A limits assumed) above, with T69A, A195C counted along it
T7 sequence (P20138 18-364 S131A limits assumed): as the sequence (P20138 18-364 C212A limits assumed) above, with S114A, A195C counted along it
human CD33 S97A, sequence (P20138 18-364 S97A limits assumed): as the sequence (P20138 18-364 C212A limits assumed) above, with S80A, A195C counted along it
human CD33 E63A, sequence (P20138 18-364 E63A limits assumed): as the sequence (P20138 18-364 C212A limits assumed) above, with E46A, A195C counted along it
human CD33 R110A, sequence (P20138 18-364 R110A limits assumed): as the sequence (P20138 18-364 C212A limits assumed) above, with R93A, A195C counted along it
human CD33 Y50A, sequence (P20138 18-364 Y50A limits assumed): as the sequence (P20138 18-364 C212A limits assumed) above, with Y33A, A195C counted along it
T5 sequence (P20138 18-364 P174A limits assumed): as the sequence (P20138 18-364 C212A limits assumed) above, with P157A, A195C counted along it
human CD33 K52Y, sequence (P20138 18-364 K52Y limits assumed): as the sequence (P20138 18-364 C212A limits assumed) above, with K35Y, A195C counted along it
human CD33 P132K, sequence (P20138 18-364 P132K limits assumed): as the sequence (P20138 18-364 C212A limits assumed) above, with P115K, A195C counted along it
human CD33 P48L, sequence (P20138 18-364 P48L limits assumed): as the sequence (P20138 18-364 C212A limits assumed) above, with P31L, A195C counted along it
human CD33 W22Q, sequence (P20138 18-364 W22Q limits assumed): as the sequence (P20138 18-364 C212A limits assumed) above, with W5Q, A195C counted along it
human CD33 Y49Q, sequence (P20138 18-364 Y49Q limits assumed): as the sequence (P20138 18-364 C212A limits assumed) above, with Y32Q, A195C counted along it
human CD33 P48I, sequence (P20138 18-364 P48I limits assumed): as the sequence (P20138 18-364 C212A limits assumed) above, with P31I, A195C counted along it
human CD33 Y49T, sequence (P20138 18-364 Y49T limits assumed): as the sequence (P20138 18-364 C212A limits assumed) above, with Y32T, A195C counted along it
human CD33 Y49H, sequence (P20138 18-364 Y49H limits assumed): as the sequence (P20138 18-364 C212A limits assumed) above, with Y32H, A195C counted along it
human CD33 P132Y, sequence (P20138 18-364 P132Y limits assumed): as the sequence (P20138 18-364 C212A limits assumed) above, with P115Y, A195C counted along it
human CD33 Y50R, sequence (P20138 18-364 Y50R limits assumed): as the sequence (P20138 18-364 C212A limits assumed) above, with Y33R, A195C counted along it
human CD33 P132Q, sequence (P20138 18-364 P132Q limits assumed): as the sequence (P20138 18-364 C212A limits assumed) above, with P115Q, A195C counted along it
human CD33 P48K, sequence (P20138 18-364 P48K limits assumed): as the sequence (P20138 18-364 C212A limits assumed) above, with P31K, A195C counted along it
human CD33 W22Y, sequence (P20138 18-364 W22Y limits assumed): as the sequence (P20138 18-364 C212A limits assumed) above, with W5Y, A195C counted along it
human CD33 K52L, sequence (P20138 18-364 K52L limits assumed): as the sequence (P20138 18-364 C212A limits assumed) above, with K35L, A195C counted along it
human CD33 Y49I, sequence (P20138 18-364 Y49I limits assumed): as the sequence (P20138 18-364 C212A limits assumed) above, with Y32I, A195C counted along it
human CD33 Y49L, sequence (P20138 18-364 Y49L limits assumed): as the sequence (P20138 18-364 C212A limits assumed) above, with Y32L, A195C counted along it
human CD33 K52I, sequence (P20138 18-364 K52I limits assumed): as the sequence (P20138 18-364 C212A limits assumed) above, with K35I, A195C counted along it
human CD33 Y49G, sequence (P20138 18-364 Y49G limits assumed): as the sequence (P20138 18-364 C212A limits assumed) above, with Y32G, A195C counted along it

B1: Refmab #6 (antibody, V domains shown)
VH: QVQLQQPGAEVVKPGASVKMSCKASGYTFTSYYIHWIKQTPGQGLEWVGVIYPGNDDISYNQKFQGKATLTADKSSTTAYMQLSSLTSEDSAVYYCAREVRLRYFDVWGQGTTVTVSS
VL: EIVLTQSPGSLAVSPGERVTMSCKSSQSVFFSSSQKNYLAWYQQIPGQSPRLLIYWASTRESGVPDRFTGSGSGTDFTLTISSVQPEDLAIYYCHQYLSSRTFGQGTKLEIK
notes: Full-length format is human IgG1 Fc silent (PG-LALA); also made as Fab; The alanine scan used IgG or Fab
Human CD33 R69A
  Mean % WT Binding: 101 % WT binding
Human CD33 S97A
  Mean % WT Binding: 93.7 % WT binding
Human CD33 R110A
  Mean % WT Binding: 98.4 % WT binding
Human CD33 Y50A
  Mean % WT Binding: 113 % WT binding
Human CD33 E63A
  Mean % WT Binding: 90.9 % WT binding
Human CD33 Q83A
  Mean % WT Binding: 108 % WT binding
Human CD33 T86A
  Mean % WT Binding: 80.1 % WT binding

B2: Refmab #6 (antibody, V domains shown)
VH: B1 VH
VL: B1 VL
notes: The alanine scan used IgG or Fab
Human CD33 V138A
  Mean % WT Binding: 65.4 % WT binding
Human CD33 P155A
  Mean % WT Binding: 104 % WT binding
Human CD33 H143A
  Mean % WT Binding: 97.5 % WT binding
Human CD33 Y127A
  Mean % WT Binding: 42 % WT binding
Human CD33 P174A
  Mean % WT Binding: 103 % WT binding
Human CD33 H193A
  Mean % WT Binding: 100 % WT binding
Human CD33 S131A
  Mean % WT Binding: 10.8 % WT binding

B3: Refmab #6 (antibody, human IgG1, V domains shown)
VH: B1 VH
VL: B1 VL
Human CD33 P132K
  binding result: no binding (tested: below 20%)
Human CD33 W22Y
  binding result: no binding (tested: below 20%)
Human CD33 P132Q
  binding result: no binding (tested: below 20%)
Human CD33 W22Q
  binding result: no binding (tested: below 20%)
Human CD33 P132Y
  binding result: no binding (tested: below 20%)

B4: Refmab #5 (antibody, V domains shown)
VH: QVQLVQSGAEVKKPGASVKVSCKASGYTFTNYDINWVRQAPGQGLEWIGWIYPGDGSTKYNEKFKAKATLTADTSTSTAYMELRSLRSDDTAVYYCASGYEDAMDYWGQGTTVTVSS
VL: DIQMTQSPSSLSASVGDRVTINCKASQDINSYLSWFQQKPGKAPKTLIYRANRLVDGVPSRFSGSGSGQDYTLTISSLQPEDFATYYCLQYDEFPLTFGGGTKVEIK
notes: as for B1
Human CD33 R69A
  Mean % WT Binding: 164 % WT binding
Human CD33 S97A
  Mean % WT Binding: 126 % WT binding
Human CD33 R110A
  Mean % WT Binding: 125 % WT binding
Human CD33 Y50A
  Mean % WT Binding: 55.7 % WT binding
Human CD33 E63A
  Mean % WT Binding: 140 % WT binding
Human CD33 Q83A
  Mean % WT Binding: 97 % WT binding
Human CD33 T86A
  Mean % WT Binding: 124 % WT binding

B5: Refmab #5 (antibody, V domains shown)
VH: B4 VH
VL: B4 VL
notes: as for B2
Human CD33 V138A
  Mean % WT Binding: 101 % WT binding
Human CD33 P155A
  Mean % WT Binding: 140 % WT binding
Human CD33 H143A
  Mean % WT Binding: 128 % WT binding
Human CD33 Y127A
  Mean % WT Binding: 199 % WT binding
Human CD33 P174A
  Mean % WT Binding: 118 % WT binding
Human CD33 H193A
  Mean % WT Binding: 119 % WT binding
Human CD33 S131A
  Mean % WT Binding: 106 % WT binding

B6: Refmab #5 (antibody, V domains shown)
VH: B4 VH
VL: B4 VL
notes: as for B1
Human CD33 C212A [1]
  Mean % WT Binding: 28.4 % WT binding

B7: Refmab #5 (antibody, human IgG1, V domains shown)
VH: B4 VH
VL: B4 VL
Human CD33 Y49H
  binding result: no binding (tested: below 20%)
Human CD33 K52I
  binding result: no binding (tested: below 20%)
Human CD33 Y49G
  binding result: no binding (tested: below 20%)
Human CD33 Y49Q
  binding result: no binding (tested: below 20%)
Human CD33 Y49L
  binding result: no binding (tested: below 20%)
Human CD33 Y49I
  binding result: no binding (tested: below 20%)
Human CD33 P48I
  binding result: no binding (tested: below 20%)
Human CD33 K52Y
  binding result: no binding (tested: below 20%)
Human CD33 K52L
  binding result: no binding (tested: below 20%)

B8: Refmab #3 (antibody, V domains shown)
VH: QVQLVQSGAEVKKPGSSVKVSCKASGYTFTDYNMHWVRQAPGQGLEWIGYIYPYNGGTGYNQKFKSKATITADESTNTAYMELSSLRSEDTAVYYCARGRPAMDYWGQGTLVTVSS
VL: DIQMTQSPSSLSASVGDRVTITCRASESVDNYGISFMNWFQQKPGKAPKLLIYAASNQGSGVPSRFSGSGSGTDFTLTISSLQPDDFATYYCQQSKEVPWTFGQGTKVEIK
notes: In the alanine scan antibodies were used as IgG or Fab
Human CD33 C212A [2]
  Mean % WT Binding: 57.3%

B9: Refmab #4 (antibody, V domains shown)
VH: QVQLVQSGAEVKKPGESVKVSCKASGYTFTNYGMNWVKQAPGQGLEWMGWINTYTGEPTYADKFQGRVTMTTDTSTSTAYMEIRNLGGDDTAVYYCARWSWSDGYYVYFDYWGQGTSVTVSS
VL: DIVMTQSPDSLTVSLGERTTINCKSSQSVLDSSTNKNSLAWYQQKPGQPPKLLLSWASTRESGIPDRFSGSGSGTDFTLTIDSPQPEDSATYYCQQSAHFPITFGQGTRLEIK
notes: as for B8
Human CD33 C212A [2]
  Mean % WT Binding: 11%

B10: Refmab #4 (antibody, human IgG1, V domains shown)
VH: B9 VH
VL: B9 VL
Human CD33 Y49T
  binding result: no binding (tested: below 20%)
Human CD33 P48K
  binding result: no binding (tested: below 20%)
Human CD33 Y50R
  binding result: no binding (tested: below 20%)
Human CD33 P48L
  binding result: no binding (tested: below 20%)
Human CD33 P48M
  binding result: no binding (tested: below 20%)

Source: patent publication US20260242735A1 (UNIVERSIT T BASEL, published 2026)
